In patent publication US8252981B2 (Athenix Corp., priority 2006, dated 2012):
Numbering of substitutions follows the chain as printed.

B1: GRG23(L3P1.B20): GRG23 variant, SEQ ID NO:21; mutation at V206 (protein)
chain: METDRLVIPGSKSITNRALLLAAAAKGTSVLVRPLVSADTSAFKTAIQALGANVSADGDNWVVEGLGQAPHLDADIWCEDAGTVARFLPPFVAAGQGKFTVDGSEQLRRRPLRPLVDGIRHLGARVSSEQLPLTIEASGLAGGEYEIEAHQSSQFASGLIMAAPYARQGLRVRIPNPVSQPYLTMTLRMMRDFGLETSTDGATVSIPPGRYTARRYEIEPDASTASYFAAASAVSGRSFEFQGLGTDSIQGDTSFFNVLGRLGAEVHWAPNSVTISGPERLNGDIEVDMGEISDTFMTLAAIAPLADGPITITNIGHARLKESDRISAMETNLRTLGVQTDVGHDWMRIYPSTPHGGRVNCHRDHRIAMAFSILGLRVDGITLDDPQCVGKTFPGFFDYLGRLFPEKALTLPG
modifications: GRG23(L3P1.B20)
notes: mutation at V206
B2: grg23(L3P1B3): GRG23 variant, SEQ ID NO:23; D75→H, E217→K (protein)
chain: B1 chain with D75H, I206V, E217K
modifications: GRG23(L3P1.B3)
notes: D75→H, E217→K
B3: GRG23(L3P1.F18): GRG23 variant, SEQ ID NO:25; T274→I (protein)
chain: B1 chain with I206V, T274I
modifications: GRG23(L3P1.F18)
notes: T274→I
B4: GRG23(L3P1.023): GRG23 variant, SEQ ID NO:27; R5→H (protein)
chain: B1 chain with R5H, I206V
modifications: GRG23(L3P1.O23)
notes: R5→H

Tested on: BL21*DE3 competent E. coli cells
Assay: Selection for glyphosate resistance on M63+ plates containing 150 mM glyphosate
Assay type: cell-based
Details: E. coli clones expressing the variant, 150 mM glyphosate plates
Protocol: The mutagenized syngrg23 libraries were transformed into E. coli strain BL21*DE3 star (Invitrogen). Following transformation, individual colonies were plated on 1× M63 medium containing 150 mM glyphosate to select for clones that had retained enzymatic activity and growth tolerance.
Library ligations were transformed into BL21*DE3 competent E. coli cells (Invitrogen). The transformations were performed according to the manufacturer's instructions with the following modifications. After incubation for 1 hour at 37° C. in SOC medium, the cells were sedimented by centrifugation (5 minutes, 1000×g, 4° C.). The cells were washed with 1 ml M63+, centrifuged again, and the supernatant decanted. The cells were washed a second time with 1 ml M63+ and resuspended in 200 ul M63+.
The plates were incubated for 36 hours at 37° C.
Colonies identified on glyphosate plates were pinned into 96-well blocks containing LB medium and were grown to an O.D. of about 0.6. IPTG was then added (0.5 mM) and the blocks were incubated overnight at 20° C. to induce protein expression. Protein extracts were prepared from the cell pellets using POP culture reagent (Novagen) and Lysonase (Novagen), and the enzymatic activity in the crude lysates was measured after heating the extracts for 30 min at 37° C.

Molecule | glyphosate resistance (in words)
B1 | retained glyphosate resistance
B2 | retained glyphosate resistance
B3 | retained glyphosate resistance
B4 | retained glyphosate resistance
